This passage reports binding signal (fold inhibition of binding vs DMSO) results from publication PMC6970277.

For this data set, the system named is DosR (His6-DosR, pre-phosphorylated with acetyl phosphate) (Mycobacterium tuberculosis). Briefly: EMSA.

The substance hspX promoter probe returned a binding signal (fold inhibition of binding vs DMSO) of 22.
